Data from patent publication US20260092179A1, “GENETICALLY MODIFIED HOST CELLS PRODUCING VIOLACEIN, ANALOGUES, AND DERIVATIVES THEREOF” (OCTARINE BIO APS, priority 2022, published 2026).
Each block holds one molecule with its values, some of them ahead of it.

What was measured:
[1] = In vitro glycosylation of violacein by purified UGT enzymes (% conversion); assay type: biochemical; conditions: for Product % production: Mono-glucoside / Product % production: Total conversion / Product % production: Di-glucoside / Product % production: Penta-glucoside / Product % production: Tetra-glucoside / Product % production: Tri-glucoside: 350 μM violacein, 24 h incubation at 30° c.
Experimental: (§1) Glycosyltransferase (UGT) enzymes were produced and purified as follows. 5 mL of 2× concentrated LB medium+appropriate antibiotic (50 μg/mL) was inoculated with E. coli XJb (DE3) strains expressing a plasmid of interest and incubated overnight at 30° C. with shaking. The following day, 50 ml TB medium+antibiotic in 250 ml baffled flasks was inoculated with 0.5 mL overnight cell culture and incubated for 3.5 hrs at 30° C. The cell cultures were then induced with 3 mM arabinose, 0.1 mM IPTG and Incubated for 24 h at 25° C., with shaking. The following day, the cells were collected by centrifugation at 6500×g for 10 mins at 4° C. Cells were resuspended in 5 mL ice-cold protein extraction buffer (50 mM Tris-HCl pH7.4+1 mM phenylmethanesulfonyl fluoride+1 cOmplete™, mini, EDTA-free Protease Inhibitor Cocktail tablet (Roche). The resuspended material was transferred to five 1.5 mL eppendorf tubes and kept at −80° C. for at least 15 mins. The tubes were then thawed at room temperature, as the tubes were thawing the following reagents were added; 2.6 mM MgCl2, 1 mM CaCl2, 300 U/mL DNase solution (DENARASE®, C-lecta) and 0.2 mg/mL lysozyme (Sigma) dissolved in MilliQwater. Tubes were gently inverted to mix then were incubated for 10-15 mins at 37° C. […] of 4× Binding buffer was then added to the tubes (to final concentration of 50 mM Tris-HCl pH7.4, 10 mM imidazole, 500 mM NaCl and the pH adjusted to 7.4 with HCl). The mix was centrifuged at 10000×g for 30 mins at 4° C., the supernatant transferred to a fresh eppendorf tubes and centrifuged again to remove any remaining cellular debris at 10000×g for 30 minutes at 4° C. While the enzyme prep was centrifuging, HisPur 0.2 ml spin column (Thermo Scientific) are prepared as instructed by manufacturer. HisPur column was washed with MilliQ water and equilibrated with two resin-bed volumes of 1×his-binding buffer two times. HisPur column was centrifuged at 700×g for 2 minutes to remove buffer. 600 μL of collected supernatant from the centrifuged enzyme preparation was transferred to the HisPur column and then incubated at 4° C. with gentle shaking by inversion for 30 minutes. After 30 minutes, the unbound protein was removed by centrifugation 700×g for 2 min. The remaining 600 μL of collected supernatant from the centrifuged enzyme preparation was loaded to the HisPur column and incubated again at 4° C. with shaking. Unspecific binding of other proteins was removed by washing twice with 1× binding buffer (50 mM Tris-HCl, 0.5M NaCl, 10 mM Imidazole, pH 7.4). Enzyme was resuspended in 200 μl elution buffer for 2 minutes before elution by centrifugation (700×g for 2 minutes at 4° C.). Enzymes were used immediately in in vitro enzyme assays or stored at −20° C. in 50% glycerol until needed.
(§2) For in vitro studies of glycosyl transferase performance in glycosylating violacein and violacein derivatives, purified glycosyl transferases were prepared as described in Example 4 and in vitro enzyme assays run as described below in Table 19.
(§3) The reaction mixture was scaled up or down as required. The reaction mixture was incubated without shaking at 30° C. for 24 hours. Extraction and analysis were performed as described in Examples 3 and 5. To confirm the identity of the produced glycosides LC-MS/QTOF was used as described above to confirm the expected mass and fragmentation pattern of each detected molecule. Quantification of violacein glycoside or other violacein derivative glycoside production was done by comparing the peak area of the substrate and the produced glycoside with authentic analytical standards (where available), where a standard was unavailable, quantification was achieved by comparing with an authentic analytical standard of the substrate. % Conversion of a substrate to a glycoside by specific Glycosyl transferases was calculated by measuring the decrease in substrate and increase in product after 24 h incubation. […]

[2] = In vitro glycosylation of proviolacein by purified UGT enzymes (% conversion); assay type: biochemical; conditions: 350 μM proviolacein, 24 h incubation at 30° c.
Experimental: as §1, §2, §3

Product % production: Mono-glucoside [1]: 25.65%
Product % production: Mono-glucoside [2]: 8.12%
B1: Cp73B: glycosyltransferase from Carica papaya (SEQ ID NO: 72) (protein, listed as Carica papaya)
chain: MGSEVLHHDYSQLNIFFFPFMAHGHMIPTLDMAKLFATHGAKTSIITTPLNLPFFSKSIERFSKQTGLEIGVKLLNFPSVEVGLPSGCENADSLPAGEPLIVNKFFAAAGMLKDPLERLLQEFKPDCLIADMFFPWTTDAAAKFDIPRLVFHGTSFFALSASECIRLYTPFNNVSSDSEPFLVPTLPDEIRLTRNQLADFAMKEGDENGIHRLIKEAKESELKSYGVVVNSFYELEPAYADHYRNFLKRKAWHIGPVSLCNKTVEDKAERGKRASIDEDECLKWLNSKAPNSVIYICFGSMANFNSAQLMEIATALDASGQEFIWVVRREKNENNQEDWLPEGFEQRTEGKGLIIRGWAPQVLILEHEAVGGFVTHCGWNSTLEGVTAGMPMVTWPVSAEQFYNEKLVTEVLKIGLSVGVKKWVRSEGDFVSREKVEQAVREIMVGSEAVERRMRAKAMADMARAAVEKGGSSYNDLNALLREVSLMRRQQSQNQ
Product % production: Total conversion [1]: 25.65%
Product % production: Total conversion [2]: 8.12%

Product % production: Di-glucoside [1]: 8.95%
Product % production: Mono-glucoside [1]: 8.69%
Product % production: Penta-glucoside [1]: 10.98%
Product % production: Tetra-glucoside [1]: 10.31%
Product % production: Tri-glucoside [1]: 15.47%
reduction in violacein concentration compared to the no-enzyme control ([1]; 24 h incubation at 30° C., HPLC): 75%
Product % production: Di-glucoside [2]: 0.15%
Product % production: Mono-glucoside [2]: 0.12%
Product % production: Penta-glucoside [2]: 0.78%
Product % production: Tetra-glucoside [2]: 1.22%
Product % production: Tri-glucoside [2]: 1.13%
B2: Pt73Y: glycosyltransferase enzyme from Populus trichocarpa (SEQ ID NO. 64, 66) (protein, listed as Populus trichocarpa)
chain: MGSLGHQLHIFFLPFFAHGHMIPSVDMAKLFASRGIKTTIITTPLNAPFFSKTIQKTKELGFDINILTIKFPAAEAGLPEGYENTDAFIFSENAREMTIKFIKATTFLQAPFEKVLQECHPDCIVADVFFPWATDAAAKFGIPRLVFHGTSNFALSASECVRLYEPHKKVSSDSEPFVVPDLPGDIKLTKKQLPDDVRENVENDFSKFLKASKEAELRSFGVVVNSFYELEPAYADYYKKVLGRRAWNVGPVSLCNRDTEDKAGRGKETSIDHHECLKWLDSKKPNSVVYICFGSTTNFSDSQLKEIAAGLEASGQQFIWVVRRNKKGQEDKEDWLPEGFEERMEGVGLIIRGWAPQVLILDHEAIGAFVTHCGWNSTLEGITAGKPMVTWPIFAEQFYNEKLVTDVLKTGVGVGVKEWFRVHGDHVKSEAVEKTITQIMVGEEAEEMRSRAKKLGETARKAVEEGGSSYSDFNALIEELRWRRP
Product % production: Total conversion [1]: 54.41%
Product % production: Total conversion [2]: 3.4%

Product % production: Mono-glucoside [1]: 9.02%
Product % production: Tetra-glucoside [1]: 11.12%
Product % production: Tri-glucoside [1]: 10.80%
Product % production: Mono-glucoside [2]: 2.12%
Product % production: Tetra-glucoside [2]: 3.34%
Product % production: Tri-glucoside [2]: 1.23%
B3: Bs109_1: glycosyltransferase from Bacillus subtilis (SEQ ID NO: 68) (protein, listed as Bacillus subtilis)
chain: MKKYHISMINIPAYGHVNPTLALVEKLCEKGHRVTYATTEEFAPAVQQAGGEALLYHTSLNIDPKQIREMMEKNDAPLSLLKESLSILPQLEELYKDDQPDLIIYDFVALAGKLFAEKLNVPVIKLCSSYAQNESFQLGNEDMLKKIREAEAEFKAYLEQEKLPAVSFEQLAVPEALNIVFMPKSFQIQHETFDDRFCFVGPSLGERKEKESLLIEKDDRPLMLISLGTAFNAWPEFYKMCIKAFRDSSWQVIMSVGKAIDPESLEDIPANFTIRQSVPQLEVLEKADLFISHGGMNSTMEAMNAGVPLVVIPQMYEQELTANRVDELGLGVYLPKEEVTVSSLQEAVQAVSSDQELLSRVKNMQKDVKEAGGAERAAAEIEAFMKKSAVPQ
Product % production: Total conversion [1]: 30.93%
Product % production: Total conversion [2]: 6.69%

Product % production: Di-glucoside [1]: 10.57%
Product % production: Mono-glucoside [1]: 11.05%
Product % production: Penta-glucoside [1]: 11.46%
Product % production: Tetra-glucoside [1]: 14.10%
Product % production: Tri-glucoside [1]: 15.29%
Product % production: Di-glucoside [2]: 1.45%
Product % production: Mono-glucoside [2]: 2.45%
Product % production: Penta-glucoside [2]: 2.11%
Product % production: Tetra-glucoside [2]: 1.98%
Product % production: Tri-glucoside [2]: 2.12%
B4: Bs109A1: glycosyltransferase from Bacillus subtilis (SEQ ID NO: 70) (protein, listed as Bacillus subtilis)
chain: MKKHHISMINIPAYGHVNPTLALVEKLCEKGHRVTYATTEEFAPAVQQAGGEALIYHTSLNIDPKQIREMMEKNDATLSLLKESLSILPQLEELYKDDQPDLIIYDFVALAGKLFADKLNVPVIKLCSSYAQNESFQLGNEDMLKKIKEAEAEFKAYLEQEQLPAVSFEQLAVPEALNIVFMPKSFQIQHETFDDRFCFVGPSLGKRTEQESLLIDKGDRPLMLISLGTAFNAWPEFYKMCIDAFRDSSWQVIMSVGKSIDPESLDDTPANFTIRQSVPQLEVLAKADLFISHGGMNSTMEAMNAGVPLVVIPQMYEQELTAKRVDELGLGVYLQREEVTVSKLQEAVQAVSGDQELLSRVKSMQKDVKEAGGAERAAAEIEAFMKKSAVPQ
Product % production: Total conversion [1]: 62.47%
Product % production: Total conversion [2]: 10.11%
